Source: patent US20170066807A1 (Pieris, published 2017)

Biological target: T1, human GPC-3 on cells (SK Hep1:hGPC-3 transfectants; HepG2) (human, UniProt P51654 25-554)
T1 construct: whole, on cells; The same molecule is used for the transfected SK-Hep1 cells and the GPC-3 positive HepG2 cells; The cell line is named under assay; also called Glypican-3
Experiment: confocal microscopy, cell surface staining of SK Hep1:hGPC-3 cells
Experimental: Incubation of SK Hep1:hGPC-3 and SK Hep1:EV (empty vector control) and HepG2 cells with hNGAL muteins (SEQ ID NOs: 1-6) and staining of GPC-3 and bound hNGAL muteins followed by confocal microscopy. Cells (SK Hep1:GPC-3, SK Hep1:EV or HepG2) were grown at 37° in a humidified CO2 incubator for 24 hrs and exposed to hNGAL muteins 1.0 ug/mL, fixed (4% PFA in PBS) and stained with a rabbit anti-lipocalin antibody overnight at 4° C. prior to addition of secondary donkey anti-rabbit AF568 antibody. For nuclei staining, cells were incubated in 300 uL of DAPI solution (1:50000 DAPI in PBS). Slides were viewed using Leica TCS SP5 DNI6000 CS Confocal Microscope (Leica) using the following lasers. […] Results clearly indicate binding of ail hNGAL muteins (SEQ ID NOs: 2-6) to the cell lines expressing GPC-3 (presence of GPC-3 on the surface of the cells was also confirmed by confocal imaging) and lack of binding of such hNGAL muteins to control cell line (SK-Hep1:EV).

T1 sequence (P51654 25-554 limits assumed): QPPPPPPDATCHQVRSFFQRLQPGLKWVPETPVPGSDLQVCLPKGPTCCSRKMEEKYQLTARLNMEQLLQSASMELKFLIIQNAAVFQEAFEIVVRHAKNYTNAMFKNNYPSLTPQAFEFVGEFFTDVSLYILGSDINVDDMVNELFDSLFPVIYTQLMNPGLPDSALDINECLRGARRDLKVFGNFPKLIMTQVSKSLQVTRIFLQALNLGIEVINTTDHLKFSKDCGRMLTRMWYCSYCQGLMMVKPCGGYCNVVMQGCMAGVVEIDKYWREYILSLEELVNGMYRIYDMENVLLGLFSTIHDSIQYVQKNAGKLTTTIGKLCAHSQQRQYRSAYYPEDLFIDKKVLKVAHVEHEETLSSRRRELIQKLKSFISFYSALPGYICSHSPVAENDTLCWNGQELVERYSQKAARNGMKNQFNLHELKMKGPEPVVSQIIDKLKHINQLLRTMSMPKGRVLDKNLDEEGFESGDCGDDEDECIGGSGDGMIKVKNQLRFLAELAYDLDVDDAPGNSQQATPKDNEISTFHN

B1: lipocalin control (SEQ ID NO: 1) (other)
chain: QDSTSDLIPAPPLSKVPLQQNFQDNQFHGKWYVVGLAGNAILREDKDPQKMYATIYELKEDKSYNVTSVLFRKKKCDYWIRTFVPGSQPGEFTLGNIKSYPGLTSYLVRVVSTNYNQHAMVFFKKVSQNREYFKITLYGRTKELTSELKENFIRFSKSLGLPENHIVFPVPIDQCIDG
notes: also called mature human Lipocalin 2; mature hNGAL
  binding result: no binding (tested: 1.0 ug/mL)
